Assay [1] has as its target T1, recombinant biotinylated monomeric Fc fusion of human Folate Receptor 1 (huFolR1 ECD-AcTev-Fcknob-Avi tag … (human, UniProt P0DOX5 223-449 = IgG part, biotin on the C-terminal Avi tag)).
T1 construct: also called huFolR1-Fc; human FolR1-Fc
Nature of the assay: SPR Biacore, affinity (monovalent). For orientation: In SPR one partner is held on a chip, and binding of the other changes the refractive index at the surface.

Assay [2] addresses T2, recombinant biotinylated monomeric Fc fusion of cynomolgus Folate Receptor 1 (cy FolR1 ECD-AcTev-Fcknob-Avi … (cynomolgus, UniProt P0DOX5 223-449 = IgG part, biotin on the C-terminal Avi tag)).
T2 construct: also called cyFolR1-Fc; cyno FolR1
Nature of the assay: SPR Biacore, affinity (monovalent), antibody captured via anti-Fab. The procedure:
(§1) All SPR experiments were performed on a Biacore T200 at 25° C. with HBS-EP as running buffer (0.01 M HEPES pH 7.4, 0.15 M NaCl, 3 mM EDTA, 0.005% Surfactant P20, Biacore, GE Healthcare). The molecules used for affinity and avidity determination are described in Table 45.
(§2) For affinity measurement, direct coupling of around 12000 resonance units (RU) of the anti-human Fab specific antibody (Fab capture kit, GE Healthcare) was performed on a CM5 chip at pH 5.0 using the standard amine coupling kit (GE Healthcare). Anti-FolR1 T cell bispecifics were captured at 20 nM with a flow rate of 10 μl/min for 40 sec, the reference flow cell was left without capture. […] The dissociation phase was monitored for 300 s and triggered by switching from the sample solution to HBS-EP. The chip surface was regenerated after every cycle using a double injection of 60 sec 10 mM Glycine-HCl pH 2.1. Bulk refractive index differences were corrected for by subtracting the response obtained on the reference flow cell 1. The affinity constants for the interactions were derived from the rate constants by fitting to a 1:1 Langmuir binding using the Bia Evaluation software (GE Healthcare). For low affinity kinetics with association and dissociation phases too fast to be fitted by the 1:1 Langmuir binding model, the steady state analysis model was applied using the Bia Evaluation software (GE Healthcare). The steady state analysis gives the KD of the binding reaction at equilibrium.

For assay [3], the target named is T1, recombinant biotinylated monomeric Fc …. Described as above. As to the method:
as §1, §2

In assay [4] the target is T3, human FolR1 expressed on cells (HeLa, SKOV3, HT-29, transfected HEK cells) (human, UniProt P15328 25-234). Nature of the assay: cell-based or functional assay.
T3 sequence (P15328 25-234): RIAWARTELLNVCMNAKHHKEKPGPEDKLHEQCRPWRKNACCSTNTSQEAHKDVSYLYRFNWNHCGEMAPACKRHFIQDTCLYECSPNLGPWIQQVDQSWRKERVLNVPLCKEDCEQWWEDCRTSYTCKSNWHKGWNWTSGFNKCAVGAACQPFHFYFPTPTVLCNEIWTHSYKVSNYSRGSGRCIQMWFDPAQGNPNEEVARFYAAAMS
In assay [5] the target is T4, recombinant biotinylated monomeric Fc fusion of human Folate Receptor 2 (hu FolR2 ECD-AcTev-Fcknob-Avi tag … (human, UniProt P0DOX5 223-449 = IgG part, biotin on the C-terminal Avi tag)).
T4 construct: also called FolR2-Fc
Nature of the assay: SPR Biacore, single injection on immobilized antigen-Fc. The procedure: as §1
(§3) First the anti-FolR1 TCBs were analyzed by single injections (Table 46) to characterize their crossreactivity (to human, murine and cyno FolR1) and specificity (to human FolR1, human FolR2, human FolR3). Recombinant biotinylated monomeric Fc fusions of human, cynomolgus and murine Folate Receptor 1 (FolR1-Fc) or human Folate Receptor 2 and 3 (FolR2-Fc, FolR3-Fc) were directly coupled on a SA chip using the standard coupling instruction (Biacore, Freiburg/Germany). The immobilization level was about 300-400 RU. The TCBs were injected for 60 seconds at a concentration of 500 nM.

Assay [6] concerns the target T5, recombinant biotinylated monomeric Fc fusion of human Folate Receptor 3 (hu FolR3 ECD-AcTev-Fcknob-Avi tag … (human, UniProt P0DOX5 223-449 = IgG part, biotin on the C-terminal Avi tag)).
T5 construct: also called FolR3-Fc
The assay is described as above. As to the method:
as §1, §3

Assay [7] has as its target T6, recombinant biotinylated monomeric Fc fusion of murine Folate Receptor 1 (mu FolR1 ECD-AcTev-Fcknob-Avitag … (murine, UniProt P0DOX5 223-449 = IgG part, biotin on the C-terminal Avi tag)).
T6 construct: also called muFolR1-Fc; murine FolR1
The description is as above. The procedure:
as §1, §3

Assay [8] has as its target T1, recombinant biotinylated monomeric Fc …. Nature of the assay: SPR Biacore, avidity (bivalent).
In assay [9] the target is T2, recombinant biotinylated monomeric Fc …. Nature of the assay: SPR Biacore, avidity (bivalent, apparent KD), antigen-Fc on SA chip. As to the method: as §1
(§4) Recombinant biotinylated monomeric Fc fusions of human, cynomolgus and murine Folate Receptor 1 (FolR1-Fc) were directly coupled on a SA chip using the standard coupling instruction (Biacore, GE Healthcare). The immobilization level was about 200-300 RU. […] The dissociation was monitored for 240 or 600 seconds. The chip surface was regenerated after every cycle using a double injection of 30 sec 10 mM Glycine-HCl pH 1.5. Bulk refractive index differences were corrected for by subtracting the response obtained on reference flow cell immobilized with recombinant biotinylated murine IL2R Fc fusion (unrelated Fc fused receptor). The binding curves resulting from the bivalent binding of the T cell bispecifics were approximated to a 1:1 Langmuir binding (even though it is a 1:2 binding) and fitted with that model to get an apparent KD representing the avidity of the bivalent binding. The apparent avidity constants for the interactions were derived from the rate constants of the fitting using the Bia Evaluation software (GE Healthcare).

The target in assay [10] is T1, recombinant biotinylated monomeric Fc …. The assay is described as above. As to the method:
as §1, §4

For assay [11], the target named is T3, human FolR1 expressed on cells (HeLa, …). Nature of the assay: cell-based or functional assay. This is another data set of the same source.
In assay [12] the target is T4, recombinant biotinylated monomeric Fc …. In words: SPR Biacore, single injection on immobilized antigen-Fc. Summed up:
(§5)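 Biacore T200 at 25 °C in HBS-EP (HEPES pH 7.4). Biotinylated FolR-Fc fusions captured on SA chip at about 300-400 RU. IgGs injected once at 500 nM for 60 s to assess cross-reactivity and specificity.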
This is another data set of the same source.

For assay [13], the target named is T5, recombinant biotinylated monomeric Fc …. Described as above. Summed up: as §5
The source holds these as a separate data set.

Assay [14] addresses T6, recombinant biotinylated monomeric Fc …. In words: SPR Biacore, single injection 500 nM on immobilized antigen-Fc. As to the method:
Binding of FolR1 binders as IgG or in the T-cell bispecific format to different recombinant folate receptors (human FolR1, 2 and 3, murine FolR1 and cynomolgus FolR1; all as Fc fusions) was assessed by surface plasmon resonance (SPR). All SPR experiments were performed on a Biacore T200 at 25° C. with HBS-EP as running buffer (0.01 M HEPES pH 7.4, 0.15 M NaCl, 3 mM EDTA, 0.005% Surfactant P20, Biacore, Freiburg/Germany).
First the anti-FolR1 IgGs were analyzed by single injections (Table 1) to characterize their crossreactivity (to human, murine and cyno FolR1) and specificity (to human FolR1, human FolR2, human FolR3). Recombinant biotinylated monomeric Fc fusions of human, cynomolgus and murine Folate Receptor 1 (FolR1-Fc) or human Folate Receptor 2 and 3 (FolR2-Fc, FolR3-Fc) were directly coupled on a SA chip using the standard coupling instruction (Biacore, Freiburg/Germany). The immobilization level was about 300-400 RU. The IgGs were injected for 60 seconds at a concentration of 500 nM.

The target of assay [15] is T3, human FolR1 expressed on cells (HeLa, …). Nature of the assay: cell-based or functional assay. This is another data set of the same source.

What is called koff is a measure of how fast the partners let go of each other. What is called kon is the rate constant with which the complex forms.

Like-named read-outs stand apart in the source and are kept apart here.

B1: 16D5 G49S/S93A TCB (2+1 inverted, common light chain) (bispecific antibody, V domains shown)
VH 1: not shown
VL: QTVVTQEPSLTVSPGGTVTLTCGSSTGAVTTSNYANWVQQKPGQAPRGLIGGTNKRAPGTPARFSGSLLGGKAALTLSGVQPEDEAEYYCALWYANLWVFGGGTKLTVL
VH 2: not shown
Take B1: the “fold lower affinity than 16D5 WT (57 nM)” value in assay [1] came to 14.5 fold. Further, in [2], the Kd came out at 420 nM, the koff was 0.0086 s⁻¹ and the kon came to 20500 M⁻¹ s⁻¹. Further, in [3], the Kd was found to be 830 nM, the koff came out at 0.00837 s⁻¹ and the kon came out at 10100 M⁻¹ s⁻¹. Besides, in assay [4], the “EC50 of T-cell killing of Hela, 24 h” value stood at 2.3 pM and the “EC50 of T-cell killing of SKov-3, 24 h” value was 430 pM. For the same molecule, the binding result in [5] was “no binding (tested: 500 nM)”. Further, the binding result in assay [6] is “no binding (tested: 500 nM)”. The binding result in assay [7] is on record as “no binding (tested: 500 nM)”. The “fold lower avidity than 16D5 WT (3 nM)” value in assay [8] amounted to 3 fold. For the same molecule, in assay [9], the Kd worked out at 20 nM, the koff turned out to be 0.00784 s⁻¹ and the kon worked out at 454000 M⁻¹ s⁻¹. In addition, in assay [10], the Kd was 10 nM, the koff was 0.00209 s⁻¹ and the kon was found to be 149000 M⁻¹ s⁻¹. Also, in assay [11], the “EC50 of T-cell killing of HT-29, 48 h” value turned out to be 99.3 pM; the “EC50 of T-cell killing of Hela, 48 h” value came to 0.9 pM; the “EC50 of T-cell killing of SKov-3, 48 h” value came out at 95.9 pM.

B2: 20H7 IgG (antibody, V domains shown)
VH: QVQLVQSGAEVKKPGASVKVSCKASGYTFTSYYMHWVRQAPGQGLEWMGIINPSGGSTSYAQKFQGRVTMTRDTSTSTVYMELSSLRSEDTAVYYCARVGWYRWGYMDYWGQGTLVTVSS
VL: QAVVTQEPSLTVSPGGTVTLTCGSSTGAVTTSNYANWVQEKPGQAFRGLIGGTNKRAPGTPARFSGSLLGGKAALTLSGAQPEDEAEYYCALWYSNLWVFGGGTKLTVL
notes: human IgG1
B2: the binding result is recorded as “no binding (tested: 500 nM)” in assay [12], “no binding (tested: 500 nM)” in assay [13] and “binds” in assay [14].

B3: 9D11 TCB S100aA (CD3 deamidation variant) (bispecific antibody, human IgG1, kappa, L234A L235A)
heavy 1: not shown
heavy 2: QVQLVQSGAEVKKPGASVKVSCKASGYTFTSYYMHWVRQAPGQGLEWMGIINPSGGPTSYAQKFQGRVTMTRDTSTSTVYMELSSLRSEDTAVYYCARGDFAWLDYWGQGTLVTVSSASTKGPSVFPLAPSSKSTSGGTAALGCLVKDYFPEPVTVSWNSGALTSGVHTFPAVLQSSGLYSLSSVVTVPSSSLGTQTYICNVNHKPSNTKVDKKVEPKSCDKTHTCPPCPAPEAAGGPSVFLFPPKPKDTLMISRTPEVTCVVVDVSHEDPEVKFNWYVDGVEVHNAKTKPREEQYNSTYRVVSVLTVLHQDWLNGKEYKCKVSNKALGAPIEKTISKAKGQPREPQVCTLPPSRDELTKNQVSLSCAVKGFYPSDIAVEWESNGQPENNYKTTPPVLDSDGSFFLVSKLTVDKSRWQQGNVFSCSVMHEALHNHYTQKSLSLSPGK
light 1: not shown
light 2: QAVVTQEPSLTVSPGGTVTLTCGSSTGAVTTSNYANWVQEKPGQAFRGLIGGTNKRAPGTPARFSGSLLGGKAALTLSGAQPEDEAEYYCALWYSNLWVFGGGTKLTVLSSASTKGPSVFPLAPSSKSTSGGTAALGCLVKDYFPEPVTVSWNSGALTSGVHTFPAVLQSSGLYSLSSVVTVPSSSLGTQTYICNVNHKPSNTKVDKKVEPKSC
Regarding B3, the “EC50 of T-cell killing of SKov-3, 24 h” value in assay [15] is 1.94 pM.
